Measured values taken from paper PMC11736430, “Embedding a ribonuclease in the spore crust couples gene expression to spore development in Bacillus subtilis” (Nucleic Acids Research, 2025).

Molecular target: the molecule itself
Test: SEC; KapD alone on the gel-filtration column; fractions 8-16 blotted with anti-KapD; size against a molecular weight marker

B1: KapD-6xHis (enzyme, B. subtilis, UniProt O05231 1-205, looked up)
chain: MTTNSLLIIDFEFTMPDGKYSPQNFFPEIIEAGIVKSIDDEVVETFSSYVRPKKFPKLTKRCKSFLKITQKQVDEGMRFEDFIRKLNELDPEKNSTIITWGNMDMKVLKQNCMFNHIPFPFKGEMRDLSLEYKNFFGDRTLTGLWKAAEEYGDSGTGTHHKALDDALTAYKLFKLVEQDKQYLEKPKPPTIGERIDLTELLKRAT
notes: KapD, 3'-exoribonuclease of the DEDDh family, Bacillus subtilis; kapD gene amplified with oligos CC073/074 and cloned in pET28a (EcoRI/SalI); also called KapD-His; His-tagged KapD; source: E. coli BL21 CodonPlus RIL (strain CCE095); in lysate (cells lysed together with the CotY strain), and purified (His-Trap, gel filtration) for KapD alone; not shown: His6, C-terminal, kept
stoichiometry N: 2
